Laboratory results taken from article PMC7819943, “Rice protein-binding microarrays: a tool to detect cis-acting elements near promoter regions in rice”.

What was measured:
OsWRKY34 = OsWRKY34 (Oryza sativa, UniProt Q0JBA9 1-250); assay: EMSA; EMSA: 5 ug protein, 40 fmol FAM-dsDNA, 1 ug poly(dI-dC), 1X binding buffer (Pierce), 2.5% glycerol, 0.05% NP-40, 20 ul, 1 h room temperature; 6% acrylamide gel; details: protein: recombinant; tags: N-terminal polyhistidine and DsRed monomer fusion (pET32a); label: 5' FAM; blunt
OsSMF1 = molecular target: T1, OsSMF1 (Oryza sativa, UniProt Q6ZLB0 1-436); assay: as above; details: protein: recombinant; tags: N-terminal polyhistidine and DsRed monomer fusion (pET32a); chain copies: 2; label: 5' FAM; blunt
T1 sequence: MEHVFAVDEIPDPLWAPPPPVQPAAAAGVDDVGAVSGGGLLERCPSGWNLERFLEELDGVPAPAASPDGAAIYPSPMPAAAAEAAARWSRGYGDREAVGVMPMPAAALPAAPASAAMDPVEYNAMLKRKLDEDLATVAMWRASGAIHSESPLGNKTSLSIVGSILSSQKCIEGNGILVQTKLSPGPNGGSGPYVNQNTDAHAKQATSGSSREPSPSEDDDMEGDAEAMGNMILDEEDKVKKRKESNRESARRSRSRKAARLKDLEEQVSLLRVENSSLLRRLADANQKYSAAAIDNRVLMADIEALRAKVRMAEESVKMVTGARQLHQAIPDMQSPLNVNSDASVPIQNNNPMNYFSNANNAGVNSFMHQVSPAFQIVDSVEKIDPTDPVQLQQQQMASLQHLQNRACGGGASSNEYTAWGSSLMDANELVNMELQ

Chain of OsWRKY34 (Q0JBA9 entry or part of it): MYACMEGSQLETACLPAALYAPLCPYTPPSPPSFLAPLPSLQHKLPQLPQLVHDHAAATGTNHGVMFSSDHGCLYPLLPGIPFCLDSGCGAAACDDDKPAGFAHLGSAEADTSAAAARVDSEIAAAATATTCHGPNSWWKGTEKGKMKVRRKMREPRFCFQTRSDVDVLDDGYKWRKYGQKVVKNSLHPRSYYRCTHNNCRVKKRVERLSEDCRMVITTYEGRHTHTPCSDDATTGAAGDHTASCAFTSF

B1: Os01g0311500_18 (dsDNA)
DNA 1: TTGACGCCGTTGACTTTTTAGTACATGTTTGACCATTCGT
DNA 2: ACGAATGGTCAAACATGTACTAAAAAGTCAACGGCGTCAA
- binding result (OsWRKY34): binds

B2: Os01g0393100_8 (ONAC026 promoter probe) (dsDNA)
DNA 1: CTGGAATCTGAGGGGAACCACGTCACGTACACAAGTATAT
DNA 2: ATATACTTGTGTACGTGACGTGGTTCCCCTCAGATTCCAG
- binding result (OsSMF1): binds

B3: Os05g0415400_39 (ONAC024 promoter probe) (dsDNA)
DNA 1: GATAATGAGTCAGTCCTCTTGTCGATACTCCGCCGGTATG
DNA 2: CATACCGGCGGAGTATCGACAAGAGGACTGACTCATTATC
- binding result (OsSMF1): binds
